In publication PMC3261180 one finds pKa data, which are given here for 3 molecules.

One data set deals with Glu47 (UniProt position 48, KPDIKEDIEYY). Kind of data set: NMR.
Another data set deals with Glu64 (UniProt position 65, PVYEFEGTSVE). Put plainly: NMR.
In the next data set the target is Asp2 (UniProt position 3, ---MVDFAFEL). Put plainly: NMR.
Another data set addresses Asp12 (UniProt position 13, LKKAQDTGKIV). Put plainly: NMR.
The target in the next data set is Glu6 (UniProt position 7, VDFAFELKKAQ). Kind of data set: NMR.
For the next data set, the target named is Glu62 (UniProt position 63, GIPVYEFEGTS). Put plainly: NMR.
The next data set has as its target Glu69 (UniProt position 70, EGTSVELGTLL). Put plainly: NMR.
A further data set has as its target Asp87 (UniProt position 88, ALAVVDPGESR). Put plainly: NMR.
Another data set deals with Glu50 (UniProt position 51, IKEDIEYYAKL). Put plainly: NMR.
The target in another data set is Glu100 (UniProt position 101, ALGGKE-----). Put plainly: NMR.
In another data set the target is Asp44 (UniProt position 45, RNAKPDIKEDI). Kind of data set: NMR.
Another data set concerns the target Asp48 (UniProt position 49, PDIKEDIEYYA). Put plainly: NMR.
The target of a further data set is Glu90 (UniProt position 91, VVDPGESRILA). Kind of data set: NMR.
The target in data set [1] is Glu3 (position 3, ---GGEGG---). Kind of data set: potentiometry.
Data set [2] deals with Asp3 (position 3, ---GGDGG---). Kind of data set: potentiometry.
Setting [3] is: 298 K, 5.4 M guanidine-HCl, not stated for the denatured samples, unfolded (guanidine-denatured).
Where [4] appears, read: 298 K, low ionic strength, 10 mM sodium citrate/phosphate, no added salt stated, folded (native).
[5] abbreviates: 333 K, 5.4 M guanidine-HCl, not stated for the denatured samples, unfolded (guanidine-denatured).
[6] abbreviates: 333 K, low ionic strength, 10 mM sodium citrate/phosphate, no added salt stated, folded (native).
Where [7] appears, read: 298 K, 5.4 M guanidine hydrochloride, free peptide in 5.4 M GdnHCl.
Setting [8] is: 298 K, no added salt (peptide in nano-pure water), free peptide, no denaturant.
[9] abbreviates: 333 K, 5.4 M guanidine hydrochloride, free peptide in 5.4 M GdnHCl.
[10] abbreviates: 333 K, no added salt (peptide in nano-pure water), free peptide, no denaturant.

In the case of “50S ribosomal protein L30e, 5R->K variant (L30e*) (Thermococcus celer; R8K;R21K;R42K;R54K;R76K)”, the pKa with Glu47 (setting [3]) turned out to be 4.17±0.02; in the data set with Glu47 (setting [4]) it was 4.53±0.04; with Glu47 (setting [5]), 4.00±0.02; with Glu47 (setting [6]), 4.56±0.04; with Glu64 (setting [3]), 4.17±0.02; with Glu64 (setting [4]), 4.10±0.06. Also, the pKa is on record as 4.00±0.02 in the data set with Glu64 (setting [5]); 4.06±0.07 with Glu64 (setting [6]); 3.62±0.01 with Asp2 (setting [3]); 3.13±0.04 in the data set with Asp2 (setting [4]); 3.53±0.02 in the data set with Asp2 (setting [5]); 3.09±0.05 with Asp2 (setting [6]). The pKa with Asp12 (setting [3]) came out at 3.56±0.02; with Asp12 (setting [4]), 3.69±0.02; in the data set with Asp12 (setting [5]), 3.46±0.02; in the data set with Asp12 (setting [6]), 3.69±0.03; with Glu6 (setting [3]) it was 4.17±0.02; with Glu6 (setting [4]), 2.34±0.03. Also, the pKa in the data set with Glu6 (setting [5]) worked out at 4.00±0.02; in the data set with Glu6 (setting [6]), 2.38±0.04; with Glu62 (setting [3]), 4.19±0.02; with Glu62 (setting [4]), 3.20±0.06; with Glu62 (setting [5]), 4.03±0.02; with Glu62 (setting [6]) it was 3.30±0.06. The pKa is 4.19±0.02 with Glu69 (setting [3]); 3.79±0.03 with Glu69 (setting [4]); 4.01±0.03 in the data set with Glu69 (setting [5]); 3.82±0.03 with Glu69 (setting [6]); 3.54±0.02 with Asp87 (setting [3]); 2.50±0.02 in the data set with Asp87 (setting [4]). Besides, the pKa came to 3.47±0.02 with Asp87 (setting [5]); 2.49±0.03 with Asp87 (setting [6]); 4.16±0.02 with Glu50 (setting [3]); 5.10±0.07 with Glu50 (setting [4]); 4.02±0.03 with Glu50 (setting [5]); 5.00±0.06 with Glu50 (setting [6]). Moreover, the pKa in the data set with Glu100 (setting [3]) came to 4.19±0.02; with Glu100 (setting [4]), 4.31±0.03; in the data set with Glu100 (setting [5]), 4.06±0.02; with Glu100 (setting [6]) it was 4.38±0.05; with Asp44 (setting [3]), 3.62±0.01; with Asp44 (setting [4]), 3.08±0.04. For the same molecule, the pKa is 3.52±0.02 with Asp44 (setting [5]); 2.88±0.04 with Asp44 (setting [6]); 3.56±0.02 with Asp48 (setting [3]); 4.14±0.04 in the data set with Asp48 (setting [4]); 3.46±0.02 with Asp48 (setting [5]); 4.24±0.04 with Asp48 (setting [6]). Moreover, the pKa in the data set with Glu90 (setting [3]) is on record as 4.16±0.02; with Glu90 (setting [4]), 4.17±0.02; in the data set with Glu90 (setting [5]), 4.02±0.03; with Glu90 (setting [6]), 4.24±0.02.

B1: Model pentapeptide Ac-GGEGG-NH2 (synthetic) (peptide)
chain: GGEGG
Take B1: the pKa in [1] (setting [7]) is on record as 4.18±0.04; in data set [1] (setting [8]), 4.17±0.03; in data set [1] (setting [9]) it was 4.10±0.02; in data set [1] (setting [10]) it was 4.10±0.01.

B2: Model pentapeptide Ac-GGDGG-NH2 (synthetic) (peptide)
chain: GGDGG
In the case of B2, the pKa stood at 3.70±0.01 in [2] (setting [7]), 3.69±0.03 in data set [2] (setting [8]), 3.64±0.02 in data set [2] (setting [9]) and 3.61±0.02 in data set [2] (setting [10]).

The term pKa denotes the negative logarithm of the acid dissociation constant.
